Measured values as given in PMC7705965 (Journal of Medicinal Chemistry, 2020).
Primed or numbered codes have the meaning given here. Where no end group is shown, it is not given here. [ ]: non-standard residue; d: D form. TAMRA = 5(6)-carboxytetramethylrhodamine; PEG6′ = [PEG]6, polyethylene glycol

Tests used:
α-cobratoxin [1] = biological target: T1, α-cobratoxin (Naja kaouthia, UniProt P01391 1-71); test: fluorescence polarisation; settings: both partners purified
α-cobratoxin [2] = biological target: T1, α-cobratoxin; test: fluorescence polarisation; settings: both partners purified; remark: listed apart in the source

T1 sequence (P01391 whole entry): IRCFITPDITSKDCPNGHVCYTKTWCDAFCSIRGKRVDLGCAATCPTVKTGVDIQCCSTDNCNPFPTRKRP

Binder | IC50 (α-cobratoxin [1]) [µM] | Ki (α-cobratoxin [2]) [µM] | Kd (α-cobratoxin [2]) [µM]
Ac-HAKTYMWDGWYMPTSH-NH2 [peptide 1 (Ac-HAKTYMWDGWYMPTSH-NH2)] | 29 | 2 | 
[PEG6′]YMWDGWYM-NH2 [peptide 12 ([PEG]6-YMWDGWYM-NH2)] |  | 26 | 
{TAMRA}-HAKTYMWDGWYMPTSH-NH2 [peptide 9 (TAMRA-HAKTYMWDGWYMPTSH-NH2)] |  |  | 52
